Laboratory results: US20220098240A1 (FUJIFILM, published 2022)
Bridge positions count the residues as written; N and C are the ends. Square brackets hold non-standard residues; d marks the D form. Ends that are not written are not given here. COCH2 = acetyl group that carries the bridge; hCys = N[C@@H](CCS)C(=O)O; Orn = NCCC[C@H](N)C(=O)O; Dab = NCC[C@H](N)C(=O)O; Dap = NC[C@H](N)C(=O)O

target: T1, human integrin αvβ5 (human, UniProt P06756 31-992; P18084 24-719); assay: SPR, Biacore 3000, peptide immobilised on CM5 chip, integrin 30-1000 nM flowed; grade C = dissociation constant more than 100 nM and 200 nM or less
T1 construct: soluble analyte in SPR at 30, 100, 300 and 1,000 nM in HEPES buffer with 5 mM magnesium chloride; heterodimer of an alpha and a beta chain
Procedure: (§1) However, only for the cyclic peptide 22, in which the number of lysine residues having an amino group as the immobilizing functional group was 1, the sample solution to be supplied to the sensor chip was set to 5,000 μL instead of 300 μL. Similarly, 70 μL of the mixed aqueous solution of 0.2 M EDC and 0.04 M NHS was added to another flow channel of the same sensor chip without immobilizing the sample, and then blocking treatment and washing treatment were carried out. Hereinafter, the obtained immobilization-treated sensor chip is referred to as an “immobilization-treated sensor chip A”.
(§2) After adding human integrin αvβ5 for 10 minutes at 25° C., which was diluted to 30 nM using a HEPES buffer solution to which magnesium chloride was added to 5 mM, in each flow channel of the immobilization-treated sensor chip A prepared in (1) above, the same HEPES buffer solution (containing 5 mM magnesium chloride) was allowed to flow as a running buffer for 30 minutes, and measurement was carried out with Biacore 3000.
Then, a regeneration treatment of removing human integrin αvβ5 was carried out by allowing a 0.5 M EDTA aqueous solution to flow through each flow channel for 10 minutes. Further, the above-described measurement process consisting of adding integrin for 10 minutes, allowing a running buffer to flow for 30 minutes, carrying out measurement with Biacore 3000, and carrying out regeneration treatment with 0.5 M EDTA aqueous solution was carried out in the same manner for 100 nM human integrin αvβ5, 300 nM human integrin αvβ5, and 1,000 nM human integrin αvβ5. Dissociation constant between the cyclic peptide and human integrin αvβ5 was calculated from the difference between the value measured by Biacore 3000 in the flow channel immobilized with the cyclic peptide and the value measured by Biacore 3000 in the flow channel unimmobilized with the cyclic peptide, in a case where each concentration of human integrin αvβ5 was allowed to flow, and the integrin binding property was evaluated according to the following evaluation standards. […]

T1 sequence (P06756 31-992, chain 1 of 2): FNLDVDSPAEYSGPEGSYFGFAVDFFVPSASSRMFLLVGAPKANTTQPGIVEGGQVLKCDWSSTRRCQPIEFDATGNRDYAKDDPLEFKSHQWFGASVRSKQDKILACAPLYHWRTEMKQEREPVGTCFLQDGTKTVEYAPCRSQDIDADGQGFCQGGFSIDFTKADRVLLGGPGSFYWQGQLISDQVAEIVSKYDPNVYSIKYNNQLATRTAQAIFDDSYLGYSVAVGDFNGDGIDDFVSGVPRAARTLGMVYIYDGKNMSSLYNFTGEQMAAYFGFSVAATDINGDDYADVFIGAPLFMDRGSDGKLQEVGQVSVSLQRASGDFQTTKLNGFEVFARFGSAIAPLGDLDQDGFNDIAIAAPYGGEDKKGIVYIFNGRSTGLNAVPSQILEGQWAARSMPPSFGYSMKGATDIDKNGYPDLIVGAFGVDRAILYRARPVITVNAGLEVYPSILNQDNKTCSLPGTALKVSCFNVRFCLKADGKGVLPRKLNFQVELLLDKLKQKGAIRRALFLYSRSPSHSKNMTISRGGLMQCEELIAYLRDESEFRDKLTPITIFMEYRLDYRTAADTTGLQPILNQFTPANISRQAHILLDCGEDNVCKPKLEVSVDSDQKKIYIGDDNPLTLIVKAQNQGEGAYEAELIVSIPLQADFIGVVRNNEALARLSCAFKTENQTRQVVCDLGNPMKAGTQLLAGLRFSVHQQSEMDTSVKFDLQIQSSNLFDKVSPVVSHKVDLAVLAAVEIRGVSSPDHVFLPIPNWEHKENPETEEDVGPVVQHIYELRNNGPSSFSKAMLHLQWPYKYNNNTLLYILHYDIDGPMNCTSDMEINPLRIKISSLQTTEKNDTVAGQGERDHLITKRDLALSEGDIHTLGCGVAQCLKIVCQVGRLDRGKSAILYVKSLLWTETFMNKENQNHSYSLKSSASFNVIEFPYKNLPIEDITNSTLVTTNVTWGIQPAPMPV
T1 sequence (P18084 24-719, chain 2 of 2): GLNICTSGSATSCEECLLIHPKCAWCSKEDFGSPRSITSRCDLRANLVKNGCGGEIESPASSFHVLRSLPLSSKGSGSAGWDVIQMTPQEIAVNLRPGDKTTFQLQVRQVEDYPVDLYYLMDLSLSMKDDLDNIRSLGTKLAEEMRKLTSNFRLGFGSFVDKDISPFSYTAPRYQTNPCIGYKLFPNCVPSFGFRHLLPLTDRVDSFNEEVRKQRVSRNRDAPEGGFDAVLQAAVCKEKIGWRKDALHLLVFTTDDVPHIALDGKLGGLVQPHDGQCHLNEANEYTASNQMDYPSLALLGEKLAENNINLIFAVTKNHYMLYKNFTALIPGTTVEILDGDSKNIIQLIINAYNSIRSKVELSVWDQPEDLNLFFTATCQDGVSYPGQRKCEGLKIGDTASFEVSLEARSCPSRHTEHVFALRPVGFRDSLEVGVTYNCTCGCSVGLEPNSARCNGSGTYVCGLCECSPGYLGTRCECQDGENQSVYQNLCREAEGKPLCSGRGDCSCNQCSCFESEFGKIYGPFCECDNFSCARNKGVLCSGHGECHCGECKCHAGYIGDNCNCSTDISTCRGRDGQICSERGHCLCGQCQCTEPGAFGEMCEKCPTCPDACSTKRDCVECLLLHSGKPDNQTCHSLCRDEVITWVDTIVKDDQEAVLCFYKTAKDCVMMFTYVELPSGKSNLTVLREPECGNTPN

Row | dissociation constant [nM] | dissociation constant (KD) [nM] | Binder
1 | 100 to 200 |  | {CH2CO}-I[hCys]RGDK(COCH2)FR[hCys]KKK (thioether 2-6, N-9) [Cyclic peptide 33]
2 |  | 100 to 200 | {CH2CO}-I[Dab](COCH2)RGD[hCys]F[hCys]KKK (thioether 2-6, N-8) [Cyclic peptide 2]
3 |  | 100 to 200 | {CH2CO}-ICRGD[Dap](COCH2)FCKKK (thioether 2-6 via Ac; thioether N-8, bicyclic; all residues L; immobilised on CM5 chip through amino groups) [Cyclic peptide 6]

target: T1, human integrin αvβ5; assay: SPR, Biacore 3000, peptide immobilised on CM5 chip, integrin 30-1000 nM flowed; grade B = dissociation constant more than 50 nM and 100 nM or less
Procedure: as §1, §2
Then, a regeneration treatment of removing human integrin αvβ5 was carried out by allowing a 0.5 M EDTA aqueous solution to flow through each flow channel for 10 minutes. Further, the above-described measurement process consisting of adding integrin for 10 minutes, allowing a running buffer to flow for 30 minutes, carrying out measurement with Biacore 3000, and carrying out regeneration treatment with 0.5 M EDTA aqueous solution was carried out in the same manner for 100 nM human integrin αvβ5, 300 nM human integrin αvβ5, and 1,000 nM human integrin αvβ5. Dissociation constant between the cyclic peptide and human integrin αvβ5 was calculated from the difference between the value measured by Biacore 3000 in the flow channel immobilized with the cyclic peptide and the value measured by Biacore 3000 in the flow channel unimmobilized with the cyclic peptide, in a case where each concentration of human integrin αvβ5 was allowed to flow, and the integrin binding property was evaluated according to the following evaluation standards. It is preferable that the evaluation result satisfies the evaluation standard A, B, or C.

Row | dissociation constant (KD) [nM] | dissociation constant [nM] | Binder
4 | 50 to 100 |  | {CH2CO}-I[hCys]RGD[Dab](COCH2)FCKKK (thioether 2-6 via Ac; thioether N-8; not fully specified, bicyclic; all residues L; immobilised on CM5 chip through amino groups) [Cyclic peptide 19]
5 | 50 to 100 |  | {CH2CO}-I[hCys]RGD[Dab]F[hCys]KKK (thioether N-8; bridge 2-6; not fully specified (residue 6, bridges); printed as I- -RGD F-(Hcy)-KKK) [Cyclic peptide 7]
6 |  | 50 to 100 | {CH2CO}-I[hCys]RGDK(COCH2)FA[hCys]KKK (thioether 2-6, N-9) [Cyclic peptide 34]
7 | 50 to 100 |  | ICRGD[Orn]FCKKK (bridge N-8, 2-6; not fully specified (residue 6, N-terminus, bridges), bicyclic; all residues L; immobilised on CM5 chip through amino groups) [Cyclic peptide 10]
8 | 50 to 100 |  | {CH2CO}-I[hCys]RGD[Orn](COCH2)F[hCys]KKK (thioether 2-6, N-8) [Cyclic peptide 9]
9 | 50 to 100 |  | {CH2CO}-IK(COCH2)RGD[hCys]F[hCys]KKK (thioether 2-6, N-8) [Cyclic peptide 4]
10 |  | 50 to 100 | {CH2CO}-V[hCys]RGD[Orn](COCH2)F[hCys]KKK (thioether 2-6, N-8) [Cyclic peptide 41]
11 |  | 50 to 100 | A[hCys][hCys]RGDK(COCH2)FK(COCH2)KKK (thioether 2-9, 3-7) [Cyclic peptide 36]
12 | 50 to 100 |  | {CH2CO}-I[hCys]RGD[Dap](COCH2)F[hCys]KKK (thioether 2-6, N-8) [Cyclic peptide 5]
13 | 50 to 100 |  | XXRGDXFCKKK (not fully specified; thioether: I1 alpha-NH2 through acetyl to C8; thioether: Dap(acetyl)2 to Hcy6, bicyclic; all residues L; immobilised on CM5 chip through amino groups) [Cyclic peptide 13]
14 |  | 50 to 100 | KKK[hCys][hCys]RGDK(COCH2)FK(COCH2)A (thioether 4-11, 5-9) [Cyclic peptide 37]
